Test results: patent US20210040184A1

Legend:
[1] = target: Clade B BaL gp120 protein (HIV-1 Clade B, BaL); assay: BLI (Octet), IgG on anti-hIgG Fc sensor, gp120 analyte, 1:1 fit
[2] = target: Clade C DU172.17 gp120 protein (HIV-1 Clade C, DU172.17); assay: as above
[3] = target: Clade B BaL gp120 protein (HIV-1 Clade B, BaL); assay: BLI (Octet), IgG on anti-hIgG Fc sensor, gp120 analyte, 1:1 fit; average of 4 runs
[4] = target: Clade C DU172.17 gp120 protein (HIV-1 Clade C, DU172.17); assay: as above

B1: Germ6 (antibody, V domains shown)
VH: ADLVQSGAVVKKPGDSVRVSCEAQGYRFPDYIIHWIRRAPGQGPEWMGWMNPMGGQVNIPWKFQGRVSMTRDTSIETAYLDLRGLKSDDTAVYYCVRDRSNGSGKRFESSNWFLDLWGRGTAVTVQS
VL: QSALTQPRSVSGSPGQSVTISCTGTHNLVSWCQHQPGRAPKLLIYDFNKRPSGVPDRFSGSGSGGTASLTISGLQDEDDAEYFCWAYEAFGGGTKLTVL
Kd [1]: 0.92 nM
fold (KD vs average of 4 runs of L1A2) [1]: 1.7 fold
koff [1]: 7.11e-05 s⁻¹
kon [1]: 77100 M⁻¹ s⁻¹
Kd [2]: 19.3 nM
fold (KD vs average of 4 runs of L1A2) [2]: 0.76 fold
koff [2]: 0.000466 s⁻¹
kon [2]: 24100 M⁻¹ s⁻¹

B2: Germ12 (antibody, V domains shown)
VH: QVDLVQSGAVVKKPGDSVRVSCEAQGYRFPDYIIHWIRRAPGQGPEWMGWMNPMGGQVNIPWKFQGRVSMTRDTSIETAYMDLRGLRSDDTAVYYCVRDRSNGSGKRFESSNWFLDLWGRGTLVTVSS
VL: QSALTQPRSVSGSPGQSVTISCTGTHNLVSWCQHQPGRAPKLLIYDFNKRPSGVPDRFSGSGSGGTASLTISGLQDEDDAEYFCWAYEAFGGGTKLTVL
Kd [1]: 0.88 nM
fold (KD vs average of 4 runs of L1A2) [1]: 1.62 fold
koff [1]: 7.09e-05 s⁻¹
kon [1]: 80800 M⁻¹ s⁻¹
Kd [2]: 21.5 nM
fold (KD vs average of 4 runs of L1A2) [2]: 0.85 fold
koff [2]: 0.000438 s⁻¹
kon [2]: 20400 M⁻¹ s⁻¹

B3: NVS49-L1A2 (antibody, V domains shown)
VH: ADLVQSGAVVKKPGDSVRISCEAQGYRFPDYIIHWIRRAPGQGPEWMGWMNPMGGQVNIPWKFQGRVSMTRDTSIETAFLDLRGLKSDDTAVYYCVRDRSNGSGKRFESSNWFLDLWGRGTAVTIQS
VL: QSALTQPRSVSASPGQSVTISCTGTHNLVSWCQHQPGRAPKLLIYDFNKRPSGVPDRFSGSGSGGTASLTITGLQDDDDAEYFCWAYEAFGGGTKLTVL
Kd [3]: 0.54 nM
fold (KD vs average of 4 runs of L1A2) [3]: 1 fold
koff [3]: 4.41e-05 s⁻¹
kon [3]: 81300 M⁻¹ s⁻¹
Kd [4]: 25.4 nM
fold (KD vs average of 4 runs of L1A2) [4]: 1 fold
koff [4]: 0.000526 s⁻¹
kon [4]: 21100 M⁻¹ s⁻¹

B4: NglycoSA (antibody, V domains shown)
VH: ADLVQSGAVVKKPGDSVRISCEAQGYRFPDYIIHWIRRAPGQGPEWMGWMNPMGGQVNIPWKFQGRVSMTRDTSIETAFLDLRGLKSDDTAVYYCVRDRSNGAGKRFESSNWFLDLWGRGTAVTIQS
VL: QSALTQPRSVSASPGQSVTISCTGTHNLVSWCQHQPGRAPKLLIYDFNKRPSGVPDRFSGSGSGGTASLTITGLQDDDDAEYFCWAYEAFGGGTKLTVL
Kd [1]: 0.84 nM
fold (KD vs average of 4 runs of L1A2) [1]: 1.54 fold
koff [1]: 6.12e-05 s⁻¹
kon [1]: 73300 M⁻¹ s⁻¹
Kd [2]: 18.4 nM
fold (KD vs average of 4 runs of L1A2) [2]: 0.72 fold
koff [2]: 0.000303 s⁻¹
kon [2]: 16500 M⁻¹ s⁻¹

B5: Germ23 (antibody, V domains shown)
VH: QVQLVQSGAEVKKPGASVKVSCEASGYRFPDYIIHWIRRAPGQGPEWMGWMNPMGGQVNIPWKFQGRVSMTRDTSIETAYMELRGLRSDDTAVYYCVRDRSNGSGKRFESSNWFLDLWGRGTLVTVSS
VL: QSALTQPRSVSGSPGQSVTISCTGTHNLVSWCQHHPGKAPKLMIYDFNKRPSGVPDRFSGSGSGGTASLTISGLQAEDEAEYFCWAYEAFGGGTKLTVL
Kd [1]: 0.97 nM
fold (KD vs average of 4 runs of L1A2) [1]: 1.79 fold
koff [1]: 7.66e-05 s⁻¹
kon [1]: 79100 M⁻¹ s⁻¹
Kd [2]: 22.4 nM
fold (KD vs average of 4 runs of L1A2) [2]: 0.88 fold
koff [2]: 0.000368 s⁻¹
kon [2]: 16400 M⁻¹ s⁻¹

B6: NglycoNDplus6 (antibody, V domains shown)
VH: ADLVQSGAVVKKPGDSVRISCEAQGYTFPDYIIHWIRRAPGQGPEWMGWMNPMGGQVNIPWKFQGRVSMTRDTSIETAFLDLRGLKSDDTAVYYCVRDRGDGSRRHFDSSNWFLDLWGRGTAVTIQS
VL: QSALTQPRSVSASPGQSVTISCTGTHNLVSWCQHQPGRAPKLLIYDFNKRPSGVPDRFSGSGSGGTASLTITGLQDDDDAEYFCWAYEAFGGGTKLTVL
Kd [1]: 11.3 nM
fold (KD vs average of 4 runs of L1A2) [1]: 20.9 fold
koff [1]: 0.0006 s⁻¹
kon [1]: 53300 M⁻¹ s⁻¹

B7: Germ18 (antibody, V domains shown)
VH: QVQLVQSGAEVKKPGASVKVSCEASGYRFPDYIIHWIRRAPGQGPEWMGWMNPMGGQVNIPWKFQGRVSMTRDTSIETAYMELRGLRSDDTAVYYCVRDRSNGSGKRFESSNWFLDLWGRGTLVTVSS
VL: QSALTQPRSVSGSPGQSVTISCTGTHNLVSWCQHQPGRAPKLLIYDFNKRPSGVPDRFSGSGSGGTASLTISGLQDEDDAEYFCWAYEAFGGGTKLTVL
Kd [1]: 0.98 nM
fold (KD vs average of 4 runs of L1A2) [1]: 1.81 fold
koff [1]: 7.09e-05 s⁻¹
kon [1]: 72200 M⁻¹ s⁻¹
Kd [2]: 21.3 nM
fold (KD vs average of 4 runs of L1A2) [2]: 0.84 fold
koff [2]: 0.000415 s⁻¹
kon [2]: 19500 M⁻¹ s⁻¹

B8: Germ17 (antibody, V domains shown)
VH: QVDLVQSGAVVKKPGDSVRVSCEAQGYRFPDYIIHWIRRAPGQGPEWMGWMNPMGGQVNIPWKFQGRVSMTRDTSIETAYMDLRGLRSDDTAVYYCVRDRSNGSGKRFESSNWFLDLWGRGTLVTVSS
VL: QSALTQPRSVSGSPGQSVTISCTGTHNLVSWCQHHPGKAPKLMIYDFNKRPSGVPDRFSGSGSGGTASLTISGLQAEDEAEYFCWAYEAFGGGTKLTVL
Kd [1]: 0.65 nM
fold (KD vs average of 4 runs of L1A2) [1]: 1.2 fold
koff [1]: 5.15e-05 s⁻¹
kon [1]: 79300 M⁻¹ s⁻¹
Kd [2]: 17.5 nM
fold (KD vs average of 4 runs of L1A2) [2]: 0.69 fold
koff [2]: 0.000331 s⁻¹
kon [2]: 18900 M⁻¹ s⁻¹

B9: Germ12_NglycoSA_CysCA (antibody, V domains shown)
VH: QVDLVQSGAVVKKPGDSVRVSCEAQGYRFPDYIIHWIRRAPGQGPEWMGWMNPMGGQVNIPWKFQGRVSMTRDTSIETAYMDLRGLRSDDTAVYYCVRDRSNGAGKRFESSNWFLDLWGRGTLVTVSS
VL: QSALTQPRSVSGSPGQSVTISCTGTHNLVSWAQHQPGRAPKLLIYDFNKRPSGVPDRFSGSGSGGTASLTISGLQDEDDAEYFCWAYEAFGGGTKLTVL
Kd [1]: 0.63 nM
fold (KD vs average of 4 runs of L1A2) [1]: 1.16 fold
koff [1]: 4.92e-05 s⁻¹
kon [1]: 78300 M⁻¹ s⁻¹
Kd [2]: 18.1 nM
fold (KD vs average of 4 runs of L1A2) [2]: 0.71 fold
koff [2]: 0.000337 s⁻¹
kon [2]: 18600 M⁻¹ s⁻¹

B10: NglycoND (antibody, V domains shown)
VH: ADLVQSGAVVKKPGDSVRISCEAQGYRFPDYIIHWIRRAPGQGPEWMGWMNPMGGQVNIPWKFQGRVSMTRDTSIETAFLDLRGLKSDDTAVYYCVRDRSDGSGKRFESSNWFLDLWGRGTAVTIQS
VL: QSALTQPRSVSASPGQSVTISCTGTHNLVSWCQHQPGRAPKLLIYDFNKRPSGVPDRFSGSGSGGTASLTITGLQDDDDAEYFCWAYEAFGGGTKLTVL
Kd [1]: 18.7 nM
fold (KD vs average of 4 runs of L1A2) [1]: 34.5 fold
koff [1]: 0.00128 s⁻¹
kon [1]: 68400 M⁻¹ s⁻¹
Kd [2]: 368 nM
fold (KD vs average of 4 runs of L1A2) [2]: 14.5 fold
koff [2]: 0.0183 s⁻¹
kon [2]: 49700 M⁻¹ s⁻¹

B11: CysCA (antibody, V domains shown)
VH: ADLVQSGAVVKKPGDSVRISCEAQGYRFPDYIIHWIRRAPGQGPEWMGWMNPMGGQVNIPWKFQGRVSMTRDTSIETAFLDLRGLKSDDTAVYYCVRDRSNGSGKRFESSNWFLDLWGRGTAVTIQS
VL: QSALTQPRSVSASPGQSVTISCTGTHNLVSWAQHQPGRAPKLLIYDFNKRPSGVPDRFSGSGSGGTASLTITGLQDDDDAEYFCWAYEAFGGGTKLTVL
Kd [1]: 1.1 nM
fold (KD vs average of 4 runs of L1A2) [1]: 2.03 fold
koff [1]: 8.01e-05 s⁻¹
kon [1]: 71900 M⁻¹ s⁻¹
Kd [2]: 19.6 nM
fold (KD vs average of 4 runs of L1A2) [2]: 0.77 fold
koff [2]: 0.000446 s⁻¹
kon [2]: 22800 M⁻¹ s⁻¹

B12: Hydro2 (antibody, V domains shown)
VH: ADLVQSGAVVKKPGDSVRISCEAQGYRFPDYIIHWIRRAPGQGPEWMGWMNPMGGQVNIPQKFQGRVSMTRDTSIETAFLDLRGLKSDDTAVYYCVRDRSNGSGKRFESSNWFLDLWGRGTAVTIQS
VL: QSALTQPRSVSASPGQSVTISCTGTHNLVSWCQHQPGRAPKLLIYDFNKRPSGVPDRFSGSGSGGTASLTITGLQDDDDAEYFCWAYENFGGGTKLTVL
Kd [1]: 0.96 nM
fold (KD vs average of 4 runs of L1A2) [1]: 1.77 fold
koff [1]: 7.18e-05 s⁻¹
kon [1]: 74700 M⁻¹ s⁻¹
Kd [2]: 55.5 nM
fold (KD vs average of 4 runs of L1A2) [2]: 2.18 fold
koff [2]: 0.000974 s⁻¹
kon [2]: 17600 M⁻¹ s⁻¹

B13: CysCV (antibody, V domains shown)
VH: ADLVQSGAVVKKPGDSVRISCEAQGYRFPDYIIHWIRRAPGQGPEWMGWMNPMGGQVNIPWKFQGRVSMTRDTSIETAFLDLRGLKSDDTAVYYCVRDRSNGSGKRFESSNWFLDLWGRGTAVTIQS
VL: QSALTQPRSVSASPGQSVTISCTGTHNLVSWVQHQPGRAPKLLIYDFNKRPSGVPDRFSGSGSGGTASLTITGLQDDDDAEYFCWAYEAFGGGTKLTVL
Kd [1]: 0.82 nM
fold (KD vs average of 4 runs of L1A2) [1]: 1.52 fold
koff [1]: 6.4e-05 s⁻¹
kon [1]: 77900 M⁻¹ s⁻¹
Kd [2]: 26.7 nM
fold (KD vs average of 4 runs of L1A2) [2]: 1.05 fold
koff [2]: 0.000495 s⁻¹
kon [2]: 18500 M⁻¹ s⁻¹
